# Laboratory results taken from patent publication US9289500B2, “Saccharide-peptide hydrogels” (The Regents of the University of California, priority 2013, dated 2016).
# Bridges are numbered along the chain shown (N, C = ends). Where no end group is shown, it is not given here. The star is where a group is joined. Acm = CC(=O)NC*
# Legend:
# IFN-γ = target: T1, IFN-γ (Homo sapiens, UniProt P01579); details: cited from earlier work
# T1 sequence (P01579 24-161 limits assumed): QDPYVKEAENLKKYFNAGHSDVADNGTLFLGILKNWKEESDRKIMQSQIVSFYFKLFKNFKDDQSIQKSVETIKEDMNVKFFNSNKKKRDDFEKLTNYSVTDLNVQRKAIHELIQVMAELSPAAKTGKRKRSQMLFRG
# TNF-α [1] = assay: TNF-α mediated PUMA mRNA up-regulation in islets; type: cell-based; details: human islets
# Excerpt: PUMA and INS Pre-mNRA as markers for islet health in response to cytokine insults. Inflammation mediated proinflammatory cytokines, including Tumor necrosis factor (TNF)-α, Interleukin(IL)-1β, Interferon (IFN)-γ, play an important role on β cell death, leading to primary graft nonfunction. […] Elevated PUMA mRNA by TNF-α or the TNF-α+ and IFN-γ combination correlated with decreased islet function, as indicated by decreased preproinsulin (INS) pre-mRNA expression (r=−0.45, p<0.001) assessed by the single islet gene expression assay (RT-PCR). TNF-α receptor blocker, Etanercept, abolished TNF-α mediated PUMA mRNA up-regulation in human islets. PUMA mRNA and INS pre-mRNA expressions are used herein as markers for islet health under cytokine insults.
# TNF-α [2] = target: TNF-α (Homo sapiens, UniProt P01375); details: cited from earlier work
# Sequence of TNF-α (Homo sapiens, UniProt P01375) (P01375 77-233 limits assumed, species assumed): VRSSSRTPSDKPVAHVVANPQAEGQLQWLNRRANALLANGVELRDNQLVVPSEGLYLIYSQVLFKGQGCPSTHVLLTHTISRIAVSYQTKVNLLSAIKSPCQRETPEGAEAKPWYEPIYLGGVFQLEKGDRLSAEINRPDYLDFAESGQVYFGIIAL
# [3] = test system: Peripheral blood mononuclear cells (PBMC); assay: In vitro biocompatibility: stimulation assay of PBMC, cytokine mRNA; type: cell-based, LEW rat; details: IFN-γ, CXCL1, IL6, GMCSF mRNA levels
# Method: In Vitro Biocompatibility Assay of SP Hydrogel by Stimulation Assay of Peripheral Blood Mononuclear Cells (PBMC). PBMC from a normal LEW rat were isolated using Histopaque (Sigma-Aldrich, St. Louis, Mo.). 1×10^6 Cells were incubated with either 0.5 μL phosphate buffered saline (PBS), 0.5 mg vicryl suture, 0.5 mg hydrogel, 0.5 mg VS-polymer, 0.5 mg Cys-polymer, or 5 μg of LPS for 20 hours at 37° C. Differences in Ct between the target and control (Actb) mRNA (ΔCt) were used to quantify the relative level for each sample's mRNA expression.
# Ex vivo biocompatibility of soluble polymers and SP hydrogel: An SP hydrogel was formed by in situ crosslinking by mixing a cysteine-functionalized (Cys-polymer) and a vinyl sulfone-functionalized (VS-polymer) saccharide-peptide copolymer under mild conditions, according to protocols presented in Chawla et al., Biomacromolecules (2011) 12:560-567, and Chawla et al., Biomaterials (2012) 33:6052-6060, which are incorporated herein in their entirety. […] The mRNA expression of inflammatory cytokines released by PBMC, including TNF-α (killer cell), IFN-γ (T-cell activation), CXCL1 (IL-8 analog, recruiter), IL6 (killer cell), and GMCSF (antigen presentation) was assessed to detect any immune stimulatory effect.
substance,measurement,setting,value
AYC(acm)RDGKIGPPKLDIRKEEKQI (AYC(Acm)RDGKIGPPKLDIRKEEKQI) [antagonizing peptide for IFN-γ; acm: acetamidomethyl],antagonism of IFN-γ,IFN-γ,potent antagonists
Etanercept,TNF-α mediated PUMA mRNA up-regulation,TNF-α [1],abolished
YCWSQYLCY (disulfide 2-8 (inferred)) [antagonizing peptide for TNF-α],antagonism of TNF-α,TNF-α [2],potent antagonists
lipopolysaccharide [LPS],stimulatory effect / mRNA response compared to LPS,[3],highest stimulatory effect
